Data taken from article doi:10.1101/2022.02.25.482027 (bioRxiv, 2022).
Residue numbers refer to the chain shown, from its start.

What was measured:
Test in all cases: co-sedimentation
FtsA(E14R) = biological target: T1, FtsA(E14R) (E. coli, UniProt P0ABH0 1-420, E14R)
T1 sequence: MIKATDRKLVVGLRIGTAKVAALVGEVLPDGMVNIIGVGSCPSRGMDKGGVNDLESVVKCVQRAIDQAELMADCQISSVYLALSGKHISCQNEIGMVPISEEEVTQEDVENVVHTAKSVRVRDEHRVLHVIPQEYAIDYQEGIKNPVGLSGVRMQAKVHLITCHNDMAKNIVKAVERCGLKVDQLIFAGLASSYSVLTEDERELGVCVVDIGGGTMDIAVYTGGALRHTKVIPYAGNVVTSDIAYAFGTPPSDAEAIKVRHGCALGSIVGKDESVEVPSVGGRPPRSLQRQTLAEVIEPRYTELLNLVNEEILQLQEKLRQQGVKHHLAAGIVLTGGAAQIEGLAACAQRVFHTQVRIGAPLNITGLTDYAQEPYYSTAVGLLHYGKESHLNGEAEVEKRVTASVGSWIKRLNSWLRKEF

FtsA(S84L) = biological target: T2, FtsA(S84L) (E. coli, UniProt P0ABH0 1-420, S84L)
T2 sequence: T1 sequence with R14E, S84L

FtsA(A188V) = biological target: T3, FtsA(A188V) (E. coli, UniProt P0ABH0 1-420, A188V)
T3 sequence: T1 sequence with R14E, A188V

FtsA(Y375A) = biological target: T4, FtsA(Y375A) (E. coli, UniProt P0ABH0 1-420, Y375A)
T4 sequence: T1 sequence with R14E, Y375A

Measured: binding result

B1: FtsZ (natural protein)
chain: MFEPMELTNDAVIKVIGVGGGGGNAVEHMVRERIEGVEFFAVNTDAQALRKTAVGQTIQIGSGITKGLGAGANPEVGRNAADEDRDALRAALEGADMVFIAAGMGGGTGTGAAPVVAEVAKDLGILTVAVVTKPFNFEGKKRMAFAEQGITELSKHVDSLITIPNDKLLKVLGRGISLLDAFGAANDVLKGAVQGIAELITRPGLMNVDFADVRTVMSEMGYAMMGSGVASGEDRAEEAAEMAISSPLLEDIDLSGARGVLVNITAGFDLRLDEFETVGNTIRAFASDNATVVIGTSLDPDMNDELRVTVVATGIGMDKRPEITLVTNKQVQQPVMDRYQQHGMAPLTQEQKPVAKVVNDNAPQTAKEPDYLDIPAFLRKQAD
binds: all assays above
